Patent publication US20260284212 (published 2026)
Residue numbers refer to the chain shown, from its start.

B1: A1CD601 VHH HuG1Fc (chimeric) (antibody, V domains shown)
VH: QVQLQESGGGLVQAGGSLRLSCTASERTFSDYALGWFRQGPGKEREFVAAINWVGGSTYYADSVKGRFTISRDNAKNTLLLQMNSLKPEDTAVYFCVASWGAMPVLTHVINYWGKGTQVTVSS
B2: CD601HH14 HuG1Fc (antibody, V domains shown)
VH: B1 VH with Q5V, A14P, T23S, G40A, L80Y, K87R, P88A, F95Y, Q118L
B3: CD601HH10 HuG1Fc (antibody, V domains shown)
VH: B1 VH with A14P, T23S, G40A, A75S, L80Y, K87R, P88A, F95Y, Q118L
B4: CD601HH12 HuG1Fc (antibody, V domains shown)
VH: B1 VH with Q5V, A14P, G40A, A75S, L80Y, K87R, P88A, F95Y, Q118L
B5: CD601HH8 HuG1Fc (antibody, V domains shown)
VH: QVQLVESGGGLVQPGGSLRLSCSASERTFSDYAMGWFRQAPGKEREFVAAINWVGGSTYYADSVKGRFTISRDNSKNTLYLQMNSLRAEDTAVYYCVASWGAMPVLTHVINYWGKGTLVTVSS

Biological target: T1, human CD6 (human, UniProt P30203)
T1 chain: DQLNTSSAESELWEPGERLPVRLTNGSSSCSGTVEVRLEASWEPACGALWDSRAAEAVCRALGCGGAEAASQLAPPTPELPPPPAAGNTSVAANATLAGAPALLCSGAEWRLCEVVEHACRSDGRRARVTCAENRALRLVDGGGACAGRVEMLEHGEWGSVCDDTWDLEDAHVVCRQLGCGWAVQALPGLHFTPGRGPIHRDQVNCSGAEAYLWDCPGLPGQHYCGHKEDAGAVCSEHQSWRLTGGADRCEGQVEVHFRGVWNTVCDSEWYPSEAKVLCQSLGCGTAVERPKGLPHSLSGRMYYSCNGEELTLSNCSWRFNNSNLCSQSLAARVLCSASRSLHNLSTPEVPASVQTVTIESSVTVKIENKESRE
Experiment: not given

Binder	Kd [nM]
B1	0.21
B2	0.269
B3	0.247
B4	0.222
B5	0.24

Biological target: T2, human CD5 (human, UniProt P06127)
T2 chain: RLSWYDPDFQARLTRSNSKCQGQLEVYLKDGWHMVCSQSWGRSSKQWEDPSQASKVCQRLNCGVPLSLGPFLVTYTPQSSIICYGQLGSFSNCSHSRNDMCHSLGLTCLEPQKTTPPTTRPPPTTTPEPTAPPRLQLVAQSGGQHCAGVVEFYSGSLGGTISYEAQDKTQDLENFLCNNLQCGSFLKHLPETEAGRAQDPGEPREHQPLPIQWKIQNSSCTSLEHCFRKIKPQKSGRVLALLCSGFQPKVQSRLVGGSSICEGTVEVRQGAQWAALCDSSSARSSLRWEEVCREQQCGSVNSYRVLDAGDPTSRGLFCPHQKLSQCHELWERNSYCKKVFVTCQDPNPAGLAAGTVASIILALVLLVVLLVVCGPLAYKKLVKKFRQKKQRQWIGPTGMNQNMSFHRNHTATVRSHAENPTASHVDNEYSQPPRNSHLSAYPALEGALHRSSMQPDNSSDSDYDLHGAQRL
Experiment: ELISA

Binder	binding result
B1	no binding
B2	no binding
B3	no binding
B4	no binding
B5	no binding

Biological target: T1, human CD6
Experiment: ELISA

Binder	EC50 [nM]
B1	0.053
B2	0.053
B3	0.066
B4	0.05
B5	0.053
